Reference: PMC3868940 (Nature methods, 2013)
Read-outs that look alike come from different tables or passages of the source.

What was measured:
Experiment in all cases: native MS
[1] = target: sensory rhodopsin II (pSRII) from Natronomonas pharaonis, pSRII(1-241) (Natronomonas pharaonis) (UniProt P42196)
[2] = target: the molecule itself
[3] = target: the molecule itself; remark: listed apart in the source

sensory rhodopsin II (pSRII) from Natronomonas pharaonis, pSRII(1-241), sequence (P42196 whole entry): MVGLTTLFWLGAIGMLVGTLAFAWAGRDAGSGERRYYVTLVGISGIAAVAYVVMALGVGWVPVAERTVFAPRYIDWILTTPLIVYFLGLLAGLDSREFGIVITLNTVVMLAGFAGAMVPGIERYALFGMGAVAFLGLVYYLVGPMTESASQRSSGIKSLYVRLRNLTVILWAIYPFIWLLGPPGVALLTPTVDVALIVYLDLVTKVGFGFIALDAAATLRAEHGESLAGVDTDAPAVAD

Row | stoichiometry N [1] | Molecule | stoichiometry N [2] | stoichiometry N [3]
1 | 2 | sensory rhodopsin II (pSRII) from Natronomonas pharaonis, pSRII(1-241) (from UniProt P42196 1-239) (receptor) | – | –
2 | – | Diacylglycerol Kinase (DgkA) from E. coli (enzyme, E. coli K12, UniProt P0ABN1 2-122, looked up) ANNTTGFTRIIKAAGYSWKGLRAAWINEAAFRQEGVAVLLAVVIACWLDVDAITRVLLISSVMLVMIVEILNSAIEAVVDRIGSEYHELSGRAKDMGSAAVLIAIIVAVITWCILLWSHFG | 2 | 3
